Key:
human SepSecS = target: T1, human SepSecS (Homo sapiens, UniProt Q9HD40, V491A); settings: holo SepSecS without bound tRNA; P-loop site near active site
T1 sequence (Q9HD40 1-501 V491A): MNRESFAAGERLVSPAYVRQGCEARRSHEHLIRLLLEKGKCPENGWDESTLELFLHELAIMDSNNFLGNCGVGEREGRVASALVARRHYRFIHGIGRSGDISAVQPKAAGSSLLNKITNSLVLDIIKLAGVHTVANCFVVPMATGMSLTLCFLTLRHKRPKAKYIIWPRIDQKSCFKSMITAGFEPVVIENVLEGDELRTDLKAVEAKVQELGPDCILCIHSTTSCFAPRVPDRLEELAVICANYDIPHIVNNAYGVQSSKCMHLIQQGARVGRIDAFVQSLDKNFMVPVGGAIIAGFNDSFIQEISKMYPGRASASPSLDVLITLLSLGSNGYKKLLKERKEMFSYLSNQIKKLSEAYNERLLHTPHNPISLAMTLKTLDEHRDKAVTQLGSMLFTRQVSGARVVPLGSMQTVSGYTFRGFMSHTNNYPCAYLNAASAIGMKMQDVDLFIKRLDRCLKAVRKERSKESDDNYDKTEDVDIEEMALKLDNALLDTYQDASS

Q399A SepSecS (human) = experiment: MST; settings: MST: 20 mM HEPES pH 8.0, 150 mM NaCl, 5% glycerol, 0.05% Tween-20, 0.4 mg/ml BSA, room temperature, 5 nM labeled SepSecS; van't Hoff series 24-34 C
SepSecS R398A (human) = experiment: MST; settings: MST: 20 mM HEPES pH 8.0, 150 mM NaCl, 5% glycerol, 0.05% Tween-20, 0.4 mg/ml BSA, room temperature, 5 nM labeled SepSecS; van't Hoff series 24-34 C
SepSecS K38M (human) = experiment: MST; settings: MST: 20 mM HEPES pH 8.0, 150 mM NaCl, 5% glycerol, 0.05% Tween-20, 0.4 mg/ml BSA, room temperature, 5 nM labeled SepSecS; van't Hoff series 24-34 C
SepSecS E37L (human) = experiment: MST; settings: MST: 20 mM HEPES pH 8.0, 150 mM NaCl, 5% glycerol, 0.05% Tween-20, 0.4 mg/ml BSA, room temperature, 5 nM labeled SepSecS; van't Hoff series 24-34 C
SepSecS WT (human) = experiment: MST; settings: MST: 20 mM HEPES pH 8.0, 150 mM NaCl, 5% glycerol, 0.05% Tween-20, 0.4 mg/ml BSA, room temperature, 5 nM labeled SepSecS; van't Hoff series 24-34 C
SepSecS R26A (human) = experiment: MST; settings: MST: 20 mM HEPES pH 8.0, 150 mM NaCl, 5% glycerol, 0.05% Tween-20, 0.4 mg/ml BSA, room temperature, 5 nM labeled SepSecS; van't Hoff series 24-34 C
SepSecS T397V (human) = experiment: MST; settings: MST: 20 mM HEPES pH 8.0, 150 mM NaCl, 5% glycerol, 0.05% Tween-20, 0.4 mg/ml BSA, room temperature, 5 nM labeled SepSecS; van't Hoff series 24-34 C
SepSecS S27A (human) = experiment: MST; settings: MST: 20 mM HEPES pH 8.0, 150 mM NaCl, 5% glycerol, 0.05% Tween-20, 0.4 mg/ml BSA, room temperature, 5 nM labeled SepSecS; van't Hoff series 24-34 C
SepSecS H30A (human) = experiment: MST; settings: MST: 20 mM HEPES pH 8.0, 150 mM NaCl, 5% glycerol, 0.05% Tween-20, 0.4 mg/ml BSA, room temperature, 5 nM labeled SepSecS; van't Hoff series 24-34 C
SepSecS R33A (human) = experiment: MST; settings: MST: 20 mM HEPES pH 8.0, 150 mM NaCl, 5% glycerol, 0.05% Tween-20, 0.4 mg/ml BSA, room temperature, 5 nM labeled SepSecS; van't Hoff series 24-34 C
SepSecS S393A (human) = experiment: MST; settings: MST: 20 mM HEPES pH 8.0, 150 mM NaCl, 5% glycerol, 0.05% Tween-20, 0.4 mg/ml BSA, room temperature, 5 nM labeled SepSecS; van't Hoff series 24-34 C
SepSecS F396V (human) = experiment: MST; settings: MST: 20 mM HEPES pH 8.0, 150 mM NaCl, 5% glycerol, 0.05% Tween-20, 0.4 mg/ml BSA, room temperature, 5 nM labeled SepSecS; van't Hoff series 24-34 C

Molecule | X-ray crystallography, 2.25 A (human SepSecS) | Kd (Q399A SepSecS (human)) | Kd (SepSecS R398A (human)) | Kd (SepSecS K38M (human)) | Kd (SepSecS E37L (human)) | Kd (SepSecS WT (human)) | Kd (SepSecS R26A (human)) | Kd (SepSecS T397V (human)) | Kd (SepSecS S27A (human)) | Kd (SepSecS H30A (human)) | Kd (SepSecS R33A (human)) | Kd (SepSecS S393A (human)) | Kd (SepSecS F396V (human))
O=P(O)(O)O [phosphate ion] | structure of holo SepSecS possessed a phosphate ion bound to the P-loop |  |  |  |  |  |  |  |  |  |  |  | 
tRNASec WT (unacylated) |  | 567 nM | 2530 nM | 1670 nM | 166 nM | 134 nM | 516 nM | 62.8 nM | 133 nM | 166 nM | 28.9 nM | 197 nM | 44.1 nM

— PMC10164584, “Structural basis for the tRNA-dependent activation of the terminal complex of selenocysteine synthesis in humans” (Nucleic Acids Research, 2023)
